Source: US20250218531A1 (ABSCI, published 2025)

B1: Trastuzumab HCDR3 variant ARYGGGYYYMDY (Fab, V domains shown)
VH: EVQLVESGGGLVQPGGSLRLSCAASGFNIKDTYIHWVRQAPGKGLEWVARIYPTNGYTRYADSVKGRFTISADTSKNTAYLQMNSLRAEDTAVYYCARYGGGYYYMDYWGQGTLVTVSS
VL: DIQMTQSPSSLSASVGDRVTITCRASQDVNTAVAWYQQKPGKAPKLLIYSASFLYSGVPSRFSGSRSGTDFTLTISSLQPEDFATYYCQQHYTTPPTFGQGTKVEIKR
B2: Trastuzumab HCDR3 variant ARWGGNYYYMDY (Fab, V domains shown)
VH: EVQLVESGGGLVQPGGSLRLSCAASGFNIKDTYIHWVRQAPGKGLEWVARIYPTNGYTRYADSVKGRFTISADTSKNTAYLQMNSLRAEDTAVYYCARWGGNYYYMDYWGQGTLVTVSS
VL: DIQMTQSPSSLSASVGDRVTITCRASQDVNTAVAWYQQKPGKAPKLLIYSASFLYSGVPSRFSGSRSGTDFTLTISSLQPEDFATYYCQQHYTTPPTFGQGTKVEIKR
B3: Trastuzumab HCDR3 variant ARWGGYYYYFDV (Fab, V domains shown)
VH: EVQLVESGGGLVQPGGSLRLSCAASGFNIKDTYIHWVRQAPGKGLEWVARIYPTNGYTRYADSVKGRFTISADTSKNTAYLQMNSLRAEDTAVYYCARWGGYYYYFDVWGQGTLVTVSS
VL: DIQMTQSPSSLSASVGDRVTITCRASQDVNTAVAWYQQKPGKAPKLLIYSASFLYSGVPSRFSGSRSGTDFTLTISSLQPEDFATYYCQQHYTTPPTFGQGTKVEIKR
B4: Trastuzumab HCDR3 variant ARWAGDYYVMDY (Fab, V domains shown)
VH: EVQLVESGGGLVQPGGSLRLSCAASGFNIKDTYIHWVRQAPGKGLEWVARIYPTNGYTRYADSVKGRFTISADTSKNTAYLQMNSLRAEDTAVYYCARWAGDYYVMDYWGQGTLVTVSS
VL: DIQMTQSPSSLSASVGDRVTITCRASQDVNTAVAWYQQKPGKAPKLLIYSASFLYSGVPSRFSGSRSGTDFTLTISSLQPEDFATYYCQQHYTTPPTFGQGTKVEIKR
B5: Trastuzumab HCDR3 variant ARWFGGYYHMDY (Fab, V domains shown)
VH: EVQLVESGGGLVQPGGSLRLSCAASGFNIKDTYIHWVRQAPGKGLEWVARIYPTNGYTRYADSVKGRFTISADTSKNTAYLQMNSLRAEDTAVYYCARWFGGYYHMDYWGQGTLVTVSS
VL: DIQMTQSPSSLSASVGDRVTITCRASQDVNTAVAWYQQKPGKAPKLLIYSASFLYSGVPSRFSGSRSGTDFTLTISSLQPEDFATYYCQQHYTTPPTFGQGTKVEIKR
B6: Trastuzumab HCDR3 variant ARWGDGYYYMDY (Fab, V domains shown)
VH: EVQLVESGGGLVQPGGSLRLSCAASGFNIKDTYIHWVRQAPGKGLEWVARIYPTNGYTRYADSVKGRFTISADTSKNTAYLQMNSLRAEDTAVYYCARWGDGYYYMDYWGQGTLVTVSS
VL: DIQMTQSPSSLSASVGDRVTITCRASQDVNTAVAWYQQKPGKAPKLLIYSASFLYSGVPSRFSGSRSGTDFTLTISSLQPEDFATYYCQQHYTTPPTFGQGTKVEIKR
B7: Trastuzumab HCDR3 variant AKYGDDNYGFSH (Fab, V domains shown)
VH: EVQLVESGGGLVQPGGSLRLSCAASGFNIKDTYIHWVRQAPGKGLEWVARIYPTNGYTRYADSVKGRFTISADTSKNTAYLQMNSLRAEDTAVYYCAKYGDDNYGFSHWGQGTLVTVSS
VL: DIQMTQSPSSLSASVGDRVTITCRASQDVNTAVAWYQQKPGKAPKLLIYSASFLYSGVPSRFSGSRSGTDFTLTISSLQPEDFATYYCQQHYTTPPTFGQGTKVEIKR
B8: Trastuzumab HCDR3 variant ARWFYDYYYMDY (Fab, V domains shown)
VH: EVQLVESGGGLVQPGGSLRLSCAASGFNIKDTYIHWVRQAPGKGLEWVARIYPTNGYTRYADSVKGRFTISADTSKNTAYLQMNSLRAEDTAVYYCARWFYDYYYMDYWGQGTLVTVSS
VL: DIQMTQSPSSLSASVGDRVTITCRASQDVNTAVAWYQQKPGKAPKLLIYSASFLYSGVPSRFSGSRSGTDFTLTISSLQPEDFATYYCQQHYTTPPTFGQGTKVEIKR
B9: Trastuzumab HCDR3 variant ARWGGDFYAMDY (Fab, V domains shown)
VH: EVQLVESGGGLVQPGGSLRLSCAASGFNIKDTYIHWVRQAPGKGLEWVARIYPTNGYTRYADSVKGRFTISADTSKNTAYLQMNSLRAEDTAVYYCARWGGDFYAMDYWGQGTLVTVSS
VL: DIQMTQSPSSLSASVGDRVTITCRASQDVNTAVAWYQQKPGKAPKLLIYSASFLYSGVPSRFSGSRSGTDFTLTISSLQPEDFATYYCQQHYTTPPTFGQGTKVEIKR
B10: Trastuzumab HCDR3 variant ALWGFGWYYFDY (Fab, V domains shown)
VH: EVQLVESGGGLVQPGGSLRLSCAASGFNIKDTYIHWVRQAPGKGLEWVARIYPTNGYTRYADSVKGRFTISADTSKNTAYLQMNSLRAEDTAVYYCALWGFGWYYFDYWGQGTLVTVSS
VL: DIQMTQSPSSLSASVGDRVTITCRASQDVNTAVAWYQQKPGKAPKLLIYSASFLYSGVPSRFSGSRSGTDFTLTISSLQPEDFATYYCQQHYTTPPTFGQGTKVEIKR
B11: Trastuzumab HCDR3 variant AKYGSNYYYLGS (Fab, V domains shown)
VH: EVQLVESGGGLVQPGGSLRLSCAASGFNIKDTYIHWVRQAPGKGLEWVARIYPTNGYTRYADSVKGRFTISADTSKNTAYLQMNSLRAEDTAVYYCAKYGSNYYYLGSWGQGTLVTVSS
VL: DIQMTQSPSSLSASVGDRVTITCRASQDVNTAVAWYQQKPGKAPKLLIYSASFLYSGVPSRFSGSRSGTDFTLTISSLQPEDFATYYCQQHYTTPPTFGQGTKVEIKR
B12: Trastuzumab HCDR3 variant ARFGGYYYYFDY (Fab, V domains shown)
VH: EVQLVESGGGLVQPGGSLRLSCAASGFNIKDTYIHWVRQAPGKGLEWVARIYPTNGYTRYADSVKGRFTISADTSKNTAYLQMNSLRAEDTAVYYCARFGGYYYYFDYWGQGTLVTVSS
VL: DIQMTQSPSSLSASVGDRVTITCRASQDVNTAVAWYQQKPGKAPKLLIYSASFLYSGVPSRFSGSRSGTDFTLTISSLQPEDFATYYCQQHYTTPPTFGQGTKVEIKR
B13: Trastuzumab HCDR3 variant ARWGGYYYYFDY (Fab, V domains shown)
VH: EVQLVESGGGLVQPGGSLRLSCAASGFNIKDTYIHWVRQAPGKGLEWVARIYPTNGYTRYADSVKGRFTISADTSKNTAYLQMNSLRAEDTAVYYCARWGGYYYYFDYWGQGTLVTVSS
VL: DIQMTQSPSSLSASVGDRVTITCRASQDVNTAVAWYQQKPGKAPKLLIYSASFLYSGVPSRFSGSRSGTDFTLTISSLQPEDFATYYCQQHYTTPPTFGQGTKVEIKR
B14: Trastuzumab HCDR3 variant AIYSDGAYFYGR (Fab, V domains shown)
VH: EVQLVESGGGLVQPGGSLRLSCAASGFNIKDTYIHWVRQAPGKGLEWVARIYPTNGYTRYADSVKGRFTISADTSKNTAYLQMNSLRAEDTAVYYCAIYSDGAYFYGRWGQGTLVTVSS
VL: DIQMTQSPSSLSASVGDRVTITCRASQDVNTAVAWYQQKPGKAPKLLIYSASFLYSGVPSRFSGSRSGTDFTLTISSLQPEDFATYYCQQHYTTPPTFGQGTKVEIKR
B15: Trastuzumab HCDR3 variant ALYGNYSYGFAR (Fab, V domains shown)
VH: EVQLVESGGGLVQPGGSLRLSCAASGFNIKDTYIHWVRQAPGKGLEWVARIYPTNGYTRYADSVKGRFTISADTSKNTAYLQMNSLRAEDTAVYYCALYGNYSYGFARWGQGTLVTVSS
VL: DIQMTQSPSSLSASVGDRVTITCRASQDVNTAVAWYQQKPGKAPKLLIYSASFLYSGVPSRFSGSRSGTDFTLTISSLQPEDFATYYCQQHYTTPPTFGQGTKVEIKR
B16: Trastuzumab HCDR3 variant AAYTNTFYYLVY (Fab, V domains shown)
VH: EVQLVESGGGLVQPGGSLRLSCAASGFNIKDTYIHWVRQAPGKGLEWVARIYPTNGYTRYADSVKGRFTISADTSKNTAYLQMNSLRAEDTAVYYCAAYTNTFYYLVYWGQGTLVTVSS
VL: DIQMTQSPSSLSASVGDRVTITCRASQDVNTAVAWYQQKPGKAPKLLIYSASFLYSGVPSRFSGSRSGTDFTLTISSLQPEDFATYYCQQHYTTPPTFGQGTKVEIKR
B17: Trastuzumab HCDR3 variant ARWGGYYYYMDY (Fab, V domains shown)
VH: EVQLVESGGGLVQPGGSLRLSCAASGFNIKDTYIHWVRQAPGKGLEWVARIYPTNGYTRYADSVKGRFTISADTSKNTAYLQMNSLRAEDTAVYYCARWGGYYYYMDYWGQGTLVTVSS
VL: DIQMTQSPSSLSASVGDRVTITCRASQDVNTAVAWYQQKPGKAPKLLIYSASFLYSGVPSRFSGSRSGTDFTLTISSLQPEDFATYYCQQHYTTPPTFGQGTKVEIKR
B18: Trastuzumab HCDR3 variant ARFGSYYYYFDY (Fab, V domains shown)
VH: EVQLVESGGGLVQPGGSLRLSCAASGFNIKDTYIHWVRQAPGKGLEWVARIYPTNGYTRYADSVKGRFTISADTSKNTAYLQMNSLRAEDTAVYYCARFGSYYYYFDYWGQGTLVTVSS
VL: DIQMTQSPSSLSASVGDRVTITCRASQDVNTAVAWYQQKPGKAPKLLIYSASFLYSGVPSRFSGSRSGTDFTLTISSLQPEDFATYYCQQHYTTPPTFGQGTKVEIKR
B19: Trastuzumab HCDR3 variant ARWGFSMYSFDY (Fab, V domains shown)
VH: EVQLVESGGGLVQPGGSLRLSCAASGFNIKDTYIHWVRQAPGKGLEWVARIYPTNGYTRYADSVKGRFTISADTSKNTAYLQMNSLRAEDTAVYYCARWGFSMYSFDYWGQGTLVTVSS
VL: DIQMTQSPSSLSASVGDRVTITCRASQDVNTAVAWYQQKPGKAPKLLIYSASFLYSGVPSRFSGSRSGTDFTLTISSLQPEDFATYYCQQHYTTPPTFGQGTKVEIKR
B20: Trastuzumab HCDR3 variant AKYSFGGYYYGD (Fab, V domains shown)
VH: EVQLVESGGGLVQPGGSLRLSCAASGFNIKDTYIHWVRQAPGKGLEWVARIYPTNGYTRYADSVKGRFTISADTSKNTAYLQMNSLRAEDTAVYYCAKYSFGGYYYGDWGQGTLVTVSS
VL: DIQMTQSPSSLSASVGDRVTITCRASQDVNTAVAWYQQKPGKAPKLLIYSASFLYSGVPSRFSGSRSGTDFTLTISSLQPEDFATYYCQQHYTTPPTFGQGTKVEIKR
B21: Trastuzumab HCDR3 variant ALYNYYYYAFGF (Fab, V domains shown)
VH: EVQLVESGGGLVQPGGSLRLSCAASGFNIKDTYIHWVRQAPGKGLEWVARIYPTNGYTRYADSVKGRFTISADTSKNTAYLQMNSLRAEDTAVYYCALYNYYYYAFGFWGQGTLVTVSS
VL: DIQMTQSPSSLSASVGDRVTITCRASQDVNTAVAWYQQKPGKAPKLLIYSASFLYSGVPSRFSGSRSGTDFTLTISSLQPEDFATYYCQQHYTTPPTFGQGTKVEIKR
B22: Trastuzumab HCDR3 variant ARWGDYYYYMDY (Fab, V domains shown)
VH: EVQLVESGGGLVQPGGSLRLSCAASGFNIKDTYIHWVRQAPGKGLEWVARIYPTNGYTRYADSVKGRFTISADTSKNTAYLQMNSLRAEDTAVYYCARWGDYYYYMDYWGQGTLVTVSS
VL: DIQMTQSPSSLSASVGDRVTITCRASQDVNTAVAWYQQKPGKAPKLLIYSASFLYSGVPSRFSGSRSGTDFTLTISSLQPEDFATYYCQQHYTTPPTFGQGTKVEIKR
B23: Trastuzumab HCDR3 variant ARFGNSGYQFDY (Fab, V domains shown)
VH: EVQLVESGGGLVQPGGSLRLSCAASGFNIKDTYIHWVRQAPGKGLEWVARIYPTNGYTRYADSVKGRFTISADTSKNTAYLQMNSLRAEDTAVYYCARFGNSGYQFDYWGQGTLVTVSS
VL: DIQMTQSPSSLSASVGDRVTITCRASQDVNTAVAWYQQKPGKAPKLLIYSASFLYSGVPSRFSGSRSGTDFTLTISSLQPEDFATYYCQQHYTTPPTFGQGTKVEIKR

target: T1, HER2 (human epidermal growth factor receptor 2) (human, UniProt P04626 23-629); assay: SPR
T1 construct: also called Antigen: HER2

Going from B1 to B2, the Kd falls from 0.0133 µM to 0.00422 µM (3.2-fold).

First: B3
Second: B4
The Kd of the first is 1.7-fold higher: 0.013 µM for the first, 0.00768 µM for the second.

First: B5
Second: B6
The Kd of the first is 1.5-fold higher: 0.00852 µM for the first, 0.00557 µM for the second. The second binds more tightly here.

B8 and B9 are within 1.5-fold of each other in Kd: 0.0126 µM for the first, 0.00949 µM for the second.

First: B10
Second: B13
The Kd of the first is 2.4-fold lower: 0.00531 µM for the first, 0.0128 µM for the second.

First: B15
Second: B17
The Kd of the first is 3.5-fold higher: 0.0126 µM for the first, 0.00362 µM for the second.

Compared with B18, B19 is 1.7-fold lower in Kd: 0.013 µM for the first, 0.0075 µM for the second.

First: B22
Second: B23
The Kd of the first is 4.4-fold lower: 0.00236 µM for the first, 0.0105 µM for the second. The first binds more tightly here.

First: B1
Second: B2
The “log(KD (M))” value of the first is higher: -7.88 for the first, -8.37 for the second.

Compared with B3, B4 is lower in “log(KD (M))” value: -7.89 for the first, -8.11 for the second.

B5 and B6 are within 0.2 log units of each other in “log(KD (M))” value: -8.07 for the first, -8.25 for the second.

B7 and B8 are within 0.2 log units of each other in “log(KD (M))” value: -7.81 for the first, -7.9 for the second.

Compared with B9, B10 is lower in “log(KD (M))” value: -8.02 for the first, -8.28 for the second.

B11 and B12 are within 0.2 log units of each other in “log(KD (M))” value: -7.73 for the first, -7.63 for the second.

B13 and B14 are within 0.2 log units of each other in “log(KD (M))” value: -7.89 for the first, -7.98 for the second.

Compared with B15, B16 is higher in “log(KD (M))” value: -7.9 for the first, -7.7 for the second.

First: B17
Second: B18
The “log(KD (M))” value of the first is lower: -8.44 for the first, -7.89 for the second.

First: B19
Second: B20
The “log(KD (M))” value of the first is lower: -8.12 for the first, -7.72 for the second.

Compared with B21, B22 is lower in “log(KD (M))” value: -7.69 for the first, -8.63 for the second.

For B23, the “log(KD (M))” value was -7.98.

Work on B7 yielded a Kd of 0.0154 µM.
For B11, the Kd was 0.0187 µM.
In the case of B12, the Kd is reported as 0.0235 µM.
With B14 the Kd was 0.0106 µM.
Work on B16 yielded a Kd of 0.0198 µM.
In the case of B20, the Kd is reported as 0.0191 µM.
Work on B21 yielded a Kd of 0.0206 µM.
